T1: His-tagged FrzCD full-length protein (M. xanthus, UniProt P43500 1-417)
T1 sequence (looked up): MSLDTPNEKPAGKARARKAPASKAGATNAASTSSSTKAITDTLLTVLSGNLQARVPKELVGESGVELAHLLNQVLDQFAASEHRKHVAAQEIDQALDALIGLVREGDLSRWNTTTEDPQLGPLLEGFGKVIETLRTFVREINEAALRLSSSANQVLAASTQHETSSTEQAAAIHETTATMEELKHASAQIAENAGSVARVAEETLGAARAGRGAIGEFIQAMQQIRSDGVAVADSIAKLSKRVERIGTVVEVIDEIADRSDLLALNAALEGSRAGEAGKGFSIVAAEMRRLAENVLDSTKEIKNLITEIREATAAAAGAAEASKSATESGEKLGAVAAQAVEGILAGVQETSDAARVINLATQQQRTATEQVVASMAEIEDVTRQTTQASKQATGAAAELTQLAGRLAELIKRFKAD

B1: AglZ^Rec (domain or fragment, M. xanthus, UniProt Q1D823 2-240, looked up)
chain: ERRVLIVESEHDFALSMATVLKGAGYQTALAETAADAQRELEKRRPDLVVLRAELKDQSGFVLCGNIKKGKWGQNLKVLLLSSESGVDGLAQHRQTPQAADGYLAIPFEMGELAALSHGIVPPGTDDTGASLDAALNGTREAPPPMPPSLKAAAGGPPKLPKRERRSAMTEEDRAFLDRTFQSIADRKAELLAESRQLKRPPPRRELMGTPEGKIQILRDELKTREAQLARLSEIWNVR
B2: FrzCD^C-ter (domain or fragment, M. xanthus, UniProt P43500 132-417, looked up)
chain: ETLRTFVREINEAALRLSSSANQVLAASTQHETSSTEQAAAIHETTATMEELKHASAQIAENAGSVARVAEETLGAARAGRGAIGEFIQAMQQIRSDGVAVADSIAKLSKRVERIGTVVEVIDEIADRSDLLALNAALEGSRAGEAGKGFSIVAAEMRRLAENVLDSTKEIKNLITEIREATAAAAGAAEASKSATESGEKLGAVAAQAVEGILAGVQETSDAARVINLATQQQRTATEQVVASMAEIEDVTRQTTQASKQATGAAAELTQLAGRLAELIKRFKAD
B3: FrzCD^N-ter (domain or fragment, M. xanthus, UniProt P43500 2-135, looked up)
chain: SLDTPNEKPAGKARARKAPASKAGATNAASTSSSTKAITDTLLTVLSGNLQARVPKELVGESGVELAHLLNQVLDQFAASEHRKHVAAQEIDQALDALIGLVREGDLSRWNTTTEDPQLGPLLEGFGKVIETLR

Legend:
Experiment in all cases: cross-linking
[1] = biological target: T1, His-tagged FrzCD full-length protein
[2] = biological target: the molecule itself
[3] = biological target: B1

| binding result [1] | binding result [3] | Binder | binding result [2] |
| --- | --- | --- | --- |
| binds |  | B1 |  |
|  |  | B2 | binds |
|  | binds | B3 | binds |

From publication PMC4098657 (Molecular microbiology, 2009)
